Measured values taken from patent US20240301049A1 (Ablynx, published 2024).
One block for each binder: values may come before it.

What was measured:
human TNF-α [1] = biological target: T1, human TNF-α (human, UniProt P01375 77-233); experiment: cell-based or functional assay
cyno TNF-α [2] = biological target: T2, cyno TNF-α (cynomolgus monkey, UniProt P79337 77-233); experiment: cell-based or functional assay
cyno IL-6 [3] = biological target: T3, cyno IL-6 (cynomolgus monkey, UniProt P79341 28-212, limits assumed); experiment: cell-based or functional assay
T3 sequence (looked up): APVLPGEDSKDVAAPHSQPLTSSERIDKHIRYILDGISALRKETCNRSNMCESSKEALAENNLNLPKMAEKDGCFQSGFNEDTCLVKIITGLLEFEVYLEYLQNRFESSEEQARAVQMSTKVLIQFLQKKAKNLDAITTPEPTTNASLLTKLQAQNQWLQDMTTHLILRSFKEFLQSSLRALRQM

human IL-6 [4] = biological target: T4, human IL-6 (human, UniProt P05231 30-212); experiment: cell-based or functional assay
human TNF-α [5] = biological target: T1, human TNF-α; experiment: cell-based or functional assay; remark: listed apart in the source
cyno TNF-α [6] = biological target: T2, cyno TNF-α; experiment: cell-based or functional assay; remark: listed apart in the source
cyno IL-6 [7] = biological target: T3, cyno IL-6; experiment: cell-based or functional assay; remark: listed apart in the source
human IL-6 [8] = biological target: T4, human IL-6; experiment: cell-based or functional assay; remark: listed apart in the source
human IL-6 [9] = biological target: T4, human IL-6; experiment: SPR

T1 sequence (P01375 77-233 limits assumed): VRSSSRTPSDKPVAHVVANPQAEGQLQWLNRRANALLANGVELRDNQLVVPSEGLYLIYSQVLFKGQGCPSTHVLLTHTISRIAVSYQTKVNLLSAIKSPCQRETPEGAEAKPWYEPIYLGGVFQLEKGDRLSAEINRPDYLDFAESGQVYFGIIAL
T2 sequence (P79337 77-233 limits assumed): as the sequence (P01375 77-233 limits assumed) above, with L37V, R44T, T72N, R138L counted along it

Ratio IC50 reference anti-TNF-α mAb/Nb (human TNF-α [1]): 0.91 ratio
hTNF-α Nfkb assay (IC50, pM) (human TNF-α [1]): 71 pM
cyno TNF-α NFkb assay (IC50, pM) (cyno TNF-α [2]): 176 pM
cyno IL-6 TF1 proliferation assay (IC50, pM) (cyno IL-6 [3]): 101 pM
Ratio IC50 reference anti-IL-6 mAb1/Nb (human IL-6 [4]): 2.7 ratio
hIL-6 TF1 proliferation assay (IC50, pM) (human IL-6 [4]): 147 pM
IC50 hTNF-α Nfkb assay (human TNF-α [5]): 71.2 pM
Ratio IC50 cyno TNFα/hTNFα (cyno TNF-α [6]): 2.5 ratio
Ratio IC50 cyno IL-6/hIL-6 (cyno IL-6 [7]): 0.7 ratio
IC50 hIL-6 TF1 proliferation assay (human IL-6 [8]): 147 pM
B1: F027201061 (bispecific antibody)
chain: EVQLVESGGGVVQPGGSLRLSCTASGFTFSTADMGWFRQAPGKGREFVARISGIDGTTYYDEPVKGRFTISRDNSKNTVYLQMNSLRPEDTALYYCRSPRYADQWSAYDYWGQGTLVKVSSGGGGSGGGSEVQLVESGGGVVQPGGSLRLSCAASGFTLAYYAIGWFRQAPGKEREGVSCISGSVGTTYYADSVKGRFTISRDNAKNTVYLQMNSLRPEDTALYYCVRSSWFDCGVQGRDLGNEYDYRGQGTLVTVSSGGGGSGGGSEVQLVESGGGVVQPGGSLRLSCAASGFTFRSFGMSWVRQAPGKGPEWVSSISGSGSDTLYADSVKGRFTISRDNSKNTLYLQMNSLRPEDTALYYCTIGGSLSRSSQGTLVTVSSGGGGSGGGSEVQLVESGGGVVQPGGSLRLSCAASGFSLDYYGVGWFRQAPGKEREGVSCISSSEGDTYYADSVKGRFTISRDNAKNTVYLQMNSLRPEDTALYYCATDLSDYGVCSRWPSPYDYWGQGTLVKVSS

Ratio IC50 reference anti-TNF-α mAb/Nb (human TNF-α [1]): 4.2 ratio
hTNF-α Nfkb assay (IC50, pM) (human TNF-α [1]): 59 pM
cyno TNF-α NFkb assay (IC50, pM) (cyno TNF-α [2]): 254 pM
cyno IL-6 TF1 proliferation assay (IC50, pM) (cyno IL-6 [3]): 72 pM
Ratio IC50 reference anti-IL-6 mAb1/Nb (human IL-6 [4]): 1.8 ratio
hIL-6 TF1 proliferation assay (IC50, pM) (human IL-6 [4]): 71 pM
IC50 hTNF-α Nfkb assay (human TNF-α [5]): 59.3 pM
Ratio IC50 cyno TNFα/hTNFα (cyno TNF-α [6]): 4.3 ratio
Ratio IC50 cyno IL-6/hIL-6 (cyno IL-6 [7]): 1 ratio
IC50 hIL-6 TF1 proliferation assay (human IL-6 [8]): 71.2 pM
B2: F027200927 (bispecific antibody)
chain: DVQLVESGGGVVQPGGSLRLSCTASGFTFSTADMGWFRQAPGKGREFVARISGIDGTTYYDEPVKGRFTISRDNSKNTVYLQMNSLRPEDTALYYCRSPRYADQWSAYDYWGQGTLVTVSSGGGGSGGGSEVQLVESGGGVVQPGGSLRLSCAASGRTFSSYVMGWFRQAPGKEREFVSTINWAGSRGYYADSVKGRFTISRDNAKNTVYLQMNSLRPEDTALYYCAASAGGFLVPRVGQGYDYWGQGTLVTVSSGGGGSGGGSEVQLVESGGGVVQPGGSLRLSCAASGFTFRSFGMSWVRQAPGKGPEWVSSISGSGSDTLYADSVKGRFTISRDNSKNTLYLQMNSLRPEDTALYYCTIGGSLSRSSQGTLVTVSSGGGGSGGGSEVQLVESGGGVVQPGGSLRLSCAASGFSLDYYGVGWFRQAPGKEREGVSCISSSEGDTYYADSVKGRFTISRDNAKNTVYLQMNSLRPEDTALYYCATDLSDYGVCSRWPSPYDYWGQGTLVKVSSA

koff (human IL-6 [9]): 5.9e-05 s⁻¹
B3: F027201040 (VHH)
VHH: EVQLVESGGGVVQPGGSLRLSCAASGFTLAYYAIGWFRQAPGKEREGVSCISGSVGTTYYADSVKGRFTISRDNAKNTVYLQMNSLRPEDTALYYCVRSSWFDCGVQGRDLGNEYDYRGQGTLVTVSS
notes: also called IL6006B12 (L11V, S52aG, S60A, K83R, V89L)
